Reference: patent EP4624492A1 (Shanghai Hongcheng Biopharmaceutical Co., Ltd., dated 2025)
Substitutions are numbered along the chain they refer to. Read-outs that look alike come from different tables or passages of the source. Values belong to the binder of their own block, whether it stands above or below them.

Assays:
[1] = molecular target: T1, human CCR8 (human, UniProt P51685 1-355); assay: flow cytometry on 293F-hCCR8 cells
T1 construct: whole, on cells; the cell line is named under assay; also called hCCR8

[2] = molecular target: T1, human CCR8; assay: flow cytometry, competition with 10 nM AF647-human CCL1 on 293F-hCCR8 cells
[3] = molecular target: T1, human CCR8; assay: cell-based or functional assay
[4] = molecular target: T1, human CCR8; assay: cell-based or functional assay; remark: listed apart in the source
[5] = molecular target: T1, human CCR8; assay: cell-based or functional assay; remark: listed apart in the source
[6] = molecular target: T1, human CCR8; assay: cell-based or functional assay; remark: listed apart in the source
[7] = molecular target: T1, human CCR8; assay: flow cytometry on 293F-hCCR8 cells; remark: listed apart in the source
[8] = molecular target: T1, human CCR8; assay: flow cytometry, competition with 10 nM AF647-human CCL1 on 293F-hCCR8 cells; remark: listed apart in the source
[9] = molecular target: T1, human CCR8; assay: flow cytometry on 293F-hCCR8 cells; remark: listed apart in the source
[10] = molecular target: T2, cynomolgus CCR8 (cynomolgus monkey); assay: flow cytometry on 293T-cynoCCR8 cells
T2 construct: whole, on cells; the constructs of the cell lines are not tied to it word for word; also called cynoCCR8

[11] = molecular target: T1, human CCR8; assay: flow cytometry, hybridoma supernatant on CHOK1-hCCR8 cells
[12] = molecular target: T2, cynomolgus CCR8; assay: flow cytometry, hybridoma supernatant on CHOK1-cynoCCR8 cells
[13] = molecular target: T1, human CCR8; assay: flow cytometry, competition with 10 nM AF647-human CCL1 on 293F-hCCR8 cells; remark: listed apart in the source
[14] = molecular target: T1, human CCR8; assay: cell-based or functional assay; remark: listed apart in the source
[15] = molecular target: T2, cynomolgus CCR8; assay: flow cytometry on 293T-cynoCCR8 cells; remark: listed apart in the source

EC50 [1]: 0.113 µg/mL
IC50 [2]: 0.0748 µg/mL
B1: 569D11B5_hIgG1 (antibody)
heavy: not shown
light: DIVMTQAAFSNPVTLGTSASISCRSSKSLLHSNGITYLFWYLQKPGQSPQLLIYQMSNLASGVPDRFSGSGSGTDFTLRISRVEAEDVGVYYCAQSLELPLTFGGGTKLEIKRTVAAPSVFIFPPSDEQLKSGTASVVCLLNNFYPREAKVQWKVDNALQSGNSQESVTEQDSKDSTYSLSSTLTLSKADYEKHKVYACEVTHQGLSSPVTKSFNRGEC
notes: also called hIgG1-subclass chimeric antibody 569D11B5

EC50 of activation of Jurkat-human FcγRIIIa(158V)-NFAT with 293F-hCCR8 target cells [3]: 0.0017 µg/mL
EC50 of activation of Jurkat-human FcγRIIIa(158V)-NFAT with HuT78 target cells [4]: 0.0117 µg/mL
B2: 563E10E12_hzH1L0_VLPLL (antibody, human IgG1, kappa)
heavy: EVQLVESGGGLVQPGGSLKLSCAASGFNFNAYAMNWVRQASGKGLEWVGRIRSKSNNFATYYADSVTDRFTISRDDSKNTAYLQMNSLKTEDTAVYYCVRHGRRDLLYSMDFWGQGTTVTVSSASTKGPSVFPLAPSSKSTSGGTAALGCLVKDYFPEPVTVSWNSGALTSGVHTFPAVLQSSGLYSLSSVVTVPSSSLGTQTYICNVNHKPSNTKVDKKVEPKSCDKTHTCPPCPAPELVGGPSVFLLPPKPKDTLMISRTPEVTCVVVDVSHEDPEVKFNWYVDGVEVHNAKTKPPEEQYNSTLRVVSVLTVLHQDWLNGKEYKCKVSNKALPAPIEKTISKAKGQPREPQVYTLPPSRDELTKNQVSLTCLVKGFYPSDIAVEWESNGQPENNYKTTPLVLDSDGSFFLYSKLTVDKSRWQQGNVFSCSVMHEALHNHYTQKSLSLSPGK
light: B1 light with A7S, A8P, F9L, N11L, L15P, T17E, S18P, R79K, L109V

EC50 [1]: 0.164 µg/mL
IC50 [2]: 0.0526 µg/mL
B3: 589D7C7_hIgG1 (antibody)
heavy: not shown
light: B1 light with G89A
notes: also called hIgG1-subclass chimeric antibody 589D7C7

EC50 [9]: 0.361 µg/mL
EC50 [10]: 0.298 µg/mL
MFI [11]: 6120 MFI
MFI [12]: 15200 MFI
IC50 [13]: 0.075 µg/mL
B6: 589D7C7 (antibody, V domains shown)
VH: EVQLVESGGGLVQPKGSLKLSCAASGFNFNAYAMNWVRQAPGKGLEWVARIRSKSNNFATYYADSVKDRFTISRDDSESMVYLEMNNLKTEDTAMYYCVRHGRRDLLYSMDFWGQGTSVTVSS
VL: DIVMTQAAFSNPVTLGTSASISCRSSKSLLHSNGITYLFWYLQKPGQSPQLLIYQMSNLASGVPDRFSGSGSGTDFTLRISRVEAEDVAVYYCAQSLELPLTFGGGTKLEIK
notes: Murine hybridoma antibody; also called 589D7C7 hybridoma antibody

EC50 [9]: 0.159 µg/mL
EC50 [10]: 0.444 µg/mL
MFI [11]: 5800 MFI
MFI [12]: 13200 MFI
IC50 [13]: 0.0882 µg/mL
B7: 569D11B5 (antibody, V domains shown)
VH: B6 VH with V5I, N57D, D68G, S79N, V81L, Y82F, E84Q
VL: B6 VL with A89G
notes: Murine hybridoma antibody; also called 569D11B5 hybridoma antibody

IC50 of blockade of CCL1-induced β-arrestin recruitment [5]: 71.2 µg/mL
EC50 of activation of Jurkat-human FcγRIIIa(158V)-NFAT with 293F-hCCR8 target cells [6]: 0.0344 µg/mL
EC50 [7]: 0.133 µg/mL
IC50 [8]: 0.121 µg/mL
B10: 559E1B10_hzH3L2_hIgG1 (antibody)
heavy: not shown
light: DIVMTQSPATLSLSPGERATLSCRASQSISDYLHWYQQKPGQAPRLLLKYVSQSISGIPARFSGSGSGTDFTLTISSLEPEDFAVYYCQNGHSFPLTFGGGTKVEIKRTVAAPSVFIFPPSDEQLKSGTASVVCLLNNFYPREAKVQWKVDNALQSGNSQESVTEQDSKDSTYSLSSTLTLSKADYEKHKVYACEVTHQGLSSPVTKSFNRGEC
notes: Humanized, hIgG1/K

IC50 of blockade of CCL1-induced β-arrestin recruitment [5]: 14.8 µg/mL
EC50 of activation of Jurkat-human FcγRIIIa(158V)-NFAT with 293F-hCCR8 target cells [6]: 0.028 µg/mL
EC50 [7]: 0.176 µg/mL
IC50 [8]: 0.088 µg/mL
B11: 559E1B10_hzH3L1_hIgG1 (antibody)
heavy: not shown
light: B10 light with D1E, M4L
notes: Humanized, hIgG1/K

IC50 of blockade of CCL1-induced β-arrestin recruitment (Tango-H_CCR8-CHO-K1 cells) [14]: 0.993 µg/mL
EC50 [1]: 0.0947 µg/mL
EC50 [15]: 0.0662 µg/mL
IC50 [2]: 0.0579 µg/mL
B16: 589D7C7_mIgG2a (antibody)
heavy: EVQLVESGGGLVQPKGSLKLSCAASGFNFNAYAMNWVRQAPGKGLEWVARIRSKSNNFATYYADSVKDRFTISRDDSESMVYLEMNNLKTEDTAMYYCVRHGRRDLLYSMDFWGQGTSVTVSSAKTTAPSVYPLAPVCGDTTGSSVTLGCLVKGYFPEPVTLTWNSGSLSSGVHTFPAVLQSDLYTLSSSVTVTSSTWPSQSITCNVAHPASSTKVDKKIEPRGPTIKPCPPCKCPAPNLLGGPSVFIFPPKIKDVLMISLSPIVTCVVVDVSEDDPDVQISWFVNNVEVHTAQTQTHREDYNSTLRVVSALPIQHQDWMSGKEFKCKVNNKDLPAPIERTISKPKGSVRAPQVYVLPPPEEEMTKKQVTLTCMVTDFMPEDIYVEWTNNGKTELNYKNTEPVLDSDGSYFMYSKLRVEKKNWVERNSYSCSVVHEGLHNHHTTKSFSRTPGK
light: DIVMTQAAFSNPVTLGTSASISCRSSKSLLHSNGITYLFWYLQKPGQSPQLLIYQMSNLASGVPDRFSGSGSGTDFTLRISRVEAEDVAVYYCAQSLELPLTFGGGTKLEIKRADAAPTVSIFPPSSEQLTSGGASVVCFLNNFYPKDINVKWKIDGSERQNGVLNSWTDQDSKDSTYSMSSTLTLTKDEYERHNSYTCEATHKTSTSPIVKSFNRNEC
notes: also called mIgG2a-subclass chimeric antibody 589D7C7

IC50 of blockade of CCL1-induced β-arrestin recruitment (Tango-H_CCR8-CHO-K1 cells) [14]: 0.997 µg/mL
EC50 [1]: 0.0835 µg/mL
EC50 [15]: 0.072 µg/mL
IC50 [2]: 0.0544 µg/mL
B17: 569D11B5_mIgG2a (antibody)
heavy: B16 heavy with V5I, N57D, D68G, S79N, V81L, Y82F, E84Q
light: B16 light with A89G
notes: also called mIgG2a-subclass chimeric antibody 569D11B5

Continued, binder first:

B4: 559E1B10_hIgG1 (antibody)
heavy: not shown
light: DIVMTQSPATLSVTPGDRVSLSCRASQSISDYLHWYQQKSHESPRLLLKYVSQSISGIPSRFSGSGSGSDFTLTINSVEPEDVGVYYCQNGHSFPLTFGAGTKLELKRTVAAPSVFIFPPSDEQLKSGTASVVCLLNNFYPREAKVQWKVDNALQSGNSQESVTEQDSKDSTYSLSSTLTLSKADYEKHKVYACEVTHQGLSSPVTKSFNRGEC
notes: also called hIgG1-subclass chimeric antibody 559E1B10
IC50 of blockade of CCL1-induced β-arrestin recruitment [5]: 10.2 µg/mL
EC50 of activation of Jurkat-human FcγRIIIa(158V)-NFAT with 293F-hCCR8 target cells [6]: 0.0401 µg/mL
EC50 [1]: 0.0617 µg/mL
EC50 [7]: 0.101 µg/mL
IC50 [2]: 0.0549 µg/mL
IC50 [8]: 0.125 µg/mL

B5: 563E10E12 (antibody, V domains shown)
VH: B6 VH with V5I, K67T, V81L, E84Q
VL: B6 VL with I2V, A19T, A89G
notes: Murine hybridoma antibody; also called 563E10E12 hybridoma antibody
EC50 [9]: 0.195 µg/mL
EC50 [10]: 0.591 µg/mL
MFI [11]: 6370 MFI
MFI [12]: 16900 MFI
IC50 [13]: 0.132 µg/mL

B8: 559E1B10_hzH0L1_hIgG1 (antibody)
heavy: not shown
light: B10 light with D1E, M4L
notes: Humanized, hIgG1/K
IC50 of blockade of CCL1-induced β-arrestin recruitment [5]: 118 µg/mL
EC50 of activation of Jurkat-human FcγRIIIa(158V)-NFAT with 293F-hCCR8 target cells [6]: 0.0305 µg/mL
EC50 [7]: 0.135 µg/mL
IC50 [8]: 0.0438 µg/mL

B9: 559E1B10_hzH1L2_hIgG1 (antibody)
heavy: not shown
light: B10 light
notes: Humanized, hIgG1/K
IC50 of blockade of CCL1-induced β-arrestin recruitment [5]: 7.33 µg/mL
EC50 of activation of Jurkat-human FcγRIIIa(158V)-NFAT with 293F-hCCR8 target cells [6]: 0.0325 µg/mL
EC50 [7]: 0.15 µg/mL
IC50 [8]: 0.0769 µg/mL

B12: 559E1B10_hzH2L2_hIgG1 (antibody)
heavy: not shown
light: B10 light
notes: Humanized, hIgG1/K
IC50 of blockade of CCL1-induced β-arrestin recruitment [5]: 6.69 µg/mL
EC50 of activation of Jurkat-human FcγRIIIa(158V)-NFAT with 293F-hCCR8 target cells [6]: 0.033 µg/mL
EC50 [7]: 0.204 µg/mL
IC50 [8]: 0.14 µg/mL

B13: 559E1B10_hzH0L2_hIgG1 (antibody)
heavy: not shown
light: B10 light
notes: Humanized, hIgG1/K
IC50 of blockade of CCL1-induced β-arrestin recruitment [5]: 11.2 µg/mL
EC50 of activation of Jurkat-human FcγRIIIa(158V)-NFAT with 293F-hCCR8 target cells [6]: 0.0286 µg/mL
EC50 [7]: 0.0979 µg/mL
IC50 [8]: 0.0413 µg/mL

B14: 27B9-1G3 (antibody, V domains shown)
VH: EIQLQQSGPELEKPGASVKISCKASGYSFTGYNMNWVKKSNGKSLEWIGNIDPYYGGTNYNQKFKGKATLTVDKSSSTAYMQLKSLTSEDSAVYYCARETWFITTGVIKKGFYFDYWGQGTTLTVSS
VL: EIVLTQSPTTMAASPGEKITLACSASSIISSNYLHWYQQKPGFSPKLLIYRTSSLASGVPARFSGSGSGTSYSLTIGTMEAEDVATYYCQQGSSIPRTFGGGTKLEIK
notes: Murine hybridoma antibody (supernatant or Protein A purified); also called 27B9-1G3 hybridoma antibody
EC50 [9]: 0.15 µg/mL
EC50 [10]: 0.146 µg/mL
MFI [11]: 2660 MFI
MFI [12]: 14000 MFI
IC50 [13]: 0.127 µg/mL

B15: 563E10E12_mIgG2a (antibody)
heavy: B16 heavy with V5I, K67T, V81L, E84Q
light: B16 light with I2V, A19T, A89G
notes: also called mIgG2a-subclass chimeric antibody 563E10E12
IC50 of blockade of CCL1-induced β-arrestin recruitment (Tango-H_CCR8-CHO-K1 cells) [14]: 0.902 µg/mL
EC50 [1]: 0.0833 µg/mL
EC50 [15]: 0.0664 µg/mL
IC50 [2]: 0.0411 µg/mL

B18: 559E1B10 (antibody, V domains shown)
VH: KVQLQQSGPVLVKPGASVKMSCKASGYTFTDYYVNWMKQNYGKSPEWIGVINPHNGDTRYNQKFKGKATLTVDKSSSTANMELTSLTSGDSAVYYCASWLRRGYYFDSWGQGTTLTVSS
VL: DIVMTQSPATLSVTPGDRVSLSCRASQSISDYLHWYQQKSHESPRLLLKYVSQSISGIPSRFSGSGSGSDFTLTINSVEPEDVGVYYCQNGHSFPLTFGAGTKLELK
notes: Murine hybridoma antibody; also called 559E1B10 hybridoma antibody
EC50 [9]: 0.107 µg/mL
EC50 [10]: 0.322 µg/mL
MFI [11]: 7350 MFI
MFI [12]: 21900 MFI
IC50 [13]: 0.0785 µg/mL
